Data from paper PMC9122589.
Values belong to the substance of their own block, whether it stands above or below them.

How the values were obtained:
[1] = target: BrxR ('BREX Regulator') from Acinetobacter sp. NEB394, untagged (Acinetobacter sp. NEB394); experiment: SEC; elution profile of purified protein on size exclusion chromatography; conditions of this run not stated
[2] = target: BrxR ('BREX Regulator') from Acinetobacter sp. NEB394, untagged (Acinetobacter sp. NEB394); experiment: crystal structure; BrxR (125 uM) co-crystallized with 25 bp dsDNA target (150 uM), 2.3 Å, molecular replacement; 0.04 M citric acid, 20% PEG 3350, 60 mM Bis-Tris propane pH 6.4
[3] = target: BrxR (R47A) from Acinetobacter sp. NEB394 (Acinetobacter sp. NEB394); experiment: SEC; elution profile of purified protein on size exclusion chromatography; conditions of this run not stated
[4] = target: BrxR (untagged WT) (Acinetobacter sp. NEB394) (UniProt A0A7H8SL41); experiment: EMSA; details: EMSA: 20 mM Tris pH 7.9, 40 mM NaCl, 2.5% sucrose, 22 C, 30 min; 20 nM DNA (10 nM in Fig S6), 25-800 nM BrxR; 7% native gel in TBE
[5] = target: selenomethionyl (SeMet)-containing BrxR from Acinetobacter sp. NEB394 (Acinetobacter sp. NEB394); experiment: crystal structure; apo BrxR, SeMet-derivatized protein, SAD phasing, 2.3 Å; crystals from 10% PEG3000, 0.1 M HEPES pH 7.3, 2% benzamidine-HCl

stoichiometry N [1]: 2
stoichiometry N [2]: 2
Substance: BrxR ('BREX Regulator') from Acinetobacter sp. NEB394, untagged (natural protein)

stoichiometry N [3]: 2
Substance: BrxR (R47A) from Acinetobacter sp. NEB394 (natural protein)

Substance: GCGGAGTCCATCCAAACATCGGGAGATTTTGATCAGATATGTTTAACCTGCCCTCACAATACCGTAAAAATAATTTACTGTATATTCATTGTAGGGTAGTCTTGATCACATTGTTTATTGACCGATTGTTCTATGACAGCAGACAAGCATGAAGTGCTTCTCAGAATGAGGGCGATTGAGTTACTGGCCTACTGGGAAGGGCGTTTG (double strand) [BREX upstream region -109/+98 (~200 bp)]
Kd [4]: 0.1 µM

stoichiometry N [5]: 2
Substance: selenomethionyl (SeMet)-containing BrxR from Acinetobacter sp. NEB394 (natural protein)
